# From article PMC7363144, “Cryo-electron microscopy structure and potential enzymatic function of human six-transmembrane epithelial antigen of the prostate 1 (STEAP1)” (The Journal of Biological Chemistry, 2020)
# Target: T1, six-transmembrane epithelial antigen of the prostate 1 (STEAP1), full-length human, C-terminal Strep-tag (Homo sapiens)
# T1 construct: human STEAP1, UniProtKB Q9UHE8, full length; codon-optimized DNA from GeneArt; Homotrimer in the cryo-EM structure; in digitonin micelles; The PDB model holds residues 67-312 only; source: HEK293 GnTI- suspension cells, purified in digitonin (Strep-Tactin resin, SEC)
# T1 sequence (Q9UHE8 2-339): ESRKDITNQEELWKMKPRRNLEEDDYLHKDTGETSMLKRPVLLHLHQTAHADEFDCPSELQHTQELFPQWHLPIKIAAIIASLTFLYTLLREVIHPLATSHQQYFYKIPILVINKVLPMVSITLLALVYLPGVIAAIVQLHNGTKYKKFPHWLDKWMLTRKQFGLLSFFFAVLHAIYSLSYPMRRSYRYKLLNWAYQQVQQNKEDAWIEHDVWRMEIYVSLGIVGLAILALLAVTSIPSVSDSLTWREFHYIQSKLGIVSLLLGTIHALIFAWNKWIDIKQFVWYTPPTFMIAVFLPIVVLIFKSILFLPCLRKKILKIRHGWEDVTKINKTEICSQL
# Test: SEC; 25 µl STEAP1 (0.28 mg/ml) mixed with a ~2-fold molar excess of Fab variant (35 µl at 0.5 mg/ml), several hours, Superdex 200 increase 3.2/300, 20 mM Tris pH 7.8, 200 mM NaCl, 0.08% digitonin; heme absorbance at 412 nm and tryptophan fluorescence
# Conditions: both partners purified
row,binding result,Binder
1,no binding,"Fab120.545 mutant R32LE (Fab, V domains shown, as the heavy chain of m2; variable region in PDB 6Y9B; as the light chain of m2 with R32E; variable region of the parent in PDB 6Y9B; source: gift from Genmab BV, produced at the authors' request) VH: DVQVQESGPGLVKPSQSLSLTCTVTGYSITSDYAWNWIRQFPGNKLEWMGYISNSGSTSYNPSLKSRISITRDTSKNQFFLQLISVTTEDTATYYCARERNYDYDDYYYAMDYWGQGTTLTVSA VL: DIVMSQSPSSLAVSVGEKVTMSCKSSQSLLYESNQKNYLAWYQQKPGQSPKLLIYWASTRESGVPDRFTGSGSGTDFTLTISSVKAEDLAVYYCQQYYNYPRTFGGGTKLEIK"
2,no binding,"Fab120.545 mutant D103HA,D105HA,D106HA (Fab, V domains shown, as the heavy chain of m2 with D103A, D105A, D106A; variable region of the parent in PDB 6Y9B; as the light chain of m2; variable region in PDB 6Y9B; also called Fab-AAA; source: gift from Genmab BV, produced at the authors' request) VH: DVQVQESGPGLVKPSQSLSLTCTVTGYSITSDYAWNWIRQFPGNKLEWMGYISNSGSTSYNPSLKSRISITRDTSKNQFFLQLISVTTEDTATYYCARERNYAYAAYYYAMDYWGQGTTLTVSA VL: DIVMSQSPSSLAVSVGEKVTMSCKSSQSLLYRSNQKNYLAWYQQKPGQSPKLLIYWASTRESGVPDRFTGSGSGTDFTLTISSVKAEDLAVYYCQQYYNYPRTFGGGTKLEIK"
3,no binding,"Fab120.545 mutant D103HN,D105HN,D106HN (Fab, V domains shown, as the heavy chain of m2 with D103N, D105N, D106N; variable region of the parent in PDB 6Y9B; as the light chain of m2; variable region in PDB 6Y9B; also called Fab-NNN; source: gift from Genmab BV, produced at the authors' request) VH: DVQVQESGPGLVKPSQSLSLTCTVTGYSITSDYAWNWIRQFPGNKLEWMGYISNSGSTSYNPSLKSRISITRDTSKNQFFLQLISVTTEDTATYYCARERNYNYNNYYYAMDYWGQGTTLTVSA VL: DIVMSQSPSSLAVSVGEKVTMSCKSSQSLLYRSNQKNYLAWYQQKPGQSPKLLIYWASTRESGVPDRFTGSGSGTDFTLTISSVKAEDLAVYYCQQYYNYPRTFGGGTKLEIK"
4,no binding,"Fab120.545 mutant N99LD (Fab, V domains shown, as the heavy chain of m2; variable region in PDB 6Y9B; as the light chain of m2 with N99D; variable region of the parent in PDB 6Y9B; source: gift from Genmab BV, produced at the authors' request) VH: DVQVQESGPGLVKPSQSLSLTCTVTGYSITSDYAWNWIRQFPGNKLEWMGYISNSGSTSYNPSLKSRISITRDTSKNQFFLQLISVTTEDTATYYCARERNYDYDDYYYAMDYWGQGTTLTVSA VL: DIVMSQSPSSLAVSVGEKVTMSCKSSQSLLYRSNQKNYLAWYQQKPGQSPKLLIYWASTRESGVPDRFTGSGSGTDFTLTISSVKAEDLAVYYCQQYYDYPRTFGGGTKLEIK"
